{"source": "patent US20250332254A1", "about": "“METHODS FOR TREATING PATIENTS WITH FAMILIAL HYPERCHOLESTEROLEMIA” (REGENERON PHARMACEUTICALS, INC., priority 2016, published 2025)", "target": "T1, ANGPTL3 (Homo sapiens, UniProt Q9Y5C1)", "T1 construct": "Angiopoietin-like protein 3 (ANGPTL3) is a secreted protein expressed in the liver; from tissue; host or cells: in vivo, human subjects; circulating protein secreted by the liver", "T1 sequence (Q9Y5C1 17-460)": "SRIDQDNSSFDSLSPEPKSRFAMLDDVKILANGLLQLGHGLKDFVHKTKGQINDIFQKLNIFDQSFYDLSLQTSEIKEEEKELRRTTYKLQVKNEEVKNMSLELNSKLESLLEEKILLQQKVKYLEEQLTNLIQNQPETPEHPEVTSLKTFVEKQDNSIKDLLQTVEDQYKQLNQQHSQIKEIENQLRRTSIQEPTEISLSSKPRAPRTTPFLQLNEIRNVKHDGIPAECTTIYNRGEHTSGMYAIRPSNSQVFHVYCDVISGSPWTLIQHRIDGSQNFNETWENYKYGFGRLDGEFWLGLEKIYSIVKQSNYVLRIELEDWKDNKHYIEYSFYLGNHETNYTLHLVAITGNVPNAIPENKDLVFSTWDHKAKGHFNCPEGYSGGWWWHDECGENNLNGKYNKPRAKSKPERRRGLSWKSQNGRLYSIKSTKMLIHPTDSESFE", "assay": "Phase 2 open-label study of evinacumab in patients with homozygous familial hypercholesterolemia on concomitant lipid-lowering therapies", "format": "in vivo", "settings": "for LDL-C, Mean of Percent Change from Baseline ± SE (%) / Non-HDL-C, Mean of Percent Change from Baseline ± SE (%) / Apolipoprotein B, Mean of Percent Change from Baseline ± SE (%): HoFH patients, 250 mg SC wk 0 + 15 mg/kg IV wk 2", "procedure": "Patients: The nine patients (5 men, 4 women) were selected based on their genotypes and phenotypes. All presented a history of LDL-C >500 mg per deciliter or >400 mg per deciliter after portacaval shunt, premature atherosclerosis (8 of 9 with prior history of cardiovascular events) and severe xanthomatosis, and were homozygotes or compound heterozygotes for known FH-causing LDLR mutations (Hobbs, et al. 1992 Hum Mutat 1:445-66). Three patients were null homozygotes. All patients were on maximally tolerated lipid-lowering therapy.\nStudy Treatment: The patients were required to maintain their usual background lipid-lowering therapy and diet and exercise regimens throughout the study. All patients received a single open-label dose of evinacumab 250 mg subcutaneously in the abdominal area during the baseline visit and a single 15 mg per kilogram intravenous dose of evinacumab 2 weeks later. The sterile, lyophilized evinacumab drug product was supplied in a 5-ml single-use glass vial for reconstitution to a concentration of 100 mg per milliliter for subcutaneous doses and 50 mg per milliliter for intravenous doses. Patients were followed for a period of up to 24 weeks after the intravenous dose to allow for washout of evinacumab, and were offered enrollment in an extension study.\nPharmacodynamic Assessment: Fasting blood samples were collected before administration of study drug, at baseline and at regular intervals during the open-label treatment period and safety follow-up period, for measurement of LDL-C, non-HDL-C, total cholesterol, HDL-C, apolipoprotein B, lipoprotein (a), triglycerides, apolipoprotein A-1, and other parameters. The primary endpoint was the mean ±standard deviation (SD) percent change in LDL-C from baseline to week 4.", "key": {"[1]": {"settings": "nine HoFH patients, baseline to week 4, given as a decrease"}, "[2]": {"settings": "nine HoFH patients, between weeks 4 and 12"}}, "note": "“And” between values parts separate entries of the source, which are not always exact repeats. Equal values may be shown once.", "data": [{"substance": "evinacumab: human anti-ANGPTL3 monoclonal antibody; HCVR SEQ ID NO:1, LCVR SEQ ID NO:5", "values": [{"measurement": "LDL-C, Mean of Percent Change from Baseline ± SE (%)", "setting": "Week 5", "result": "−46.8 ± 5.1", "unit": "%"}, {"measurement": "Non-HDL-C, Mean of Percent Change from Baseline ± SE (%)", "setting": "Week 5", "result": "−46.6 ± 5.0", "unit": "%"}, {"measurement": "Apolipoprotein B, Mean of Percent Change from Baseline ± SE (%)", "setting": "Week 6", "result": "−43.1 ± 4.9", "unit": "%"}, {"measurement": "LDL-C, Mean of Percent Change from Baseline ± SE (%)", "setting": "Week 6", "result": "−52.1 ± 4.9", "unit": "%"}, {"measurement": "Non-HDL-C, Mean of Percent Change from Baseline ± SE (%)", "setting": "Week 6", "result": "−51.5 ± 4.8", "unit": "%"}, {"measurement": "Apolipoprotein B, Mean of Percent Change from Baseline ± SE (%)", "setting": "Week 8", "result": "−42.7 ± 4.8", "unit": "%"}, {"measurement": "LDL-C, Mean of Percent Change from Baseline ± SE (%)", "setting": "Week 8", "result": "−51.6 ± 6.0", "unit": "%"}, {"measurement": "Non-HDL-C, Mean of Percent Change from Baseline ± SE (%)", "setting": "Week 8", "result": "−50.6 ± 5.7", "unit": "%"}, {"measurement": "LDL-C, Mean of Percent Change from Baseline ± SE (%)", "setting": "Week 10", "result": "−45.6 ± 4.6", "unit": "%"}, {"measurement": "Non-HDL-C, Mean of Percent Change from Baseline ± SE (%)", "setting": "Week 10", "result": "−44.8 ± 4.4", "unit": "%"}, {"measurement": "Apolipoprotein B, Mean of Percent Change from Baseline ± SE (%)", "setting": "Week 12", "result": "−29.5 ± 7.2", "unit": "%"}, {"measurement": "LDL-C, Mean of Percent Change from Baseline ± SE (%)", "setting": "Week 12", "result": "−36.6 ± 6.4", "unit": "%"}, {"measurement": "Non-HDL-C, Mean of Percent Change from Baseline ± SE (%)", "setting": "Week 12", "result": "−36.4 ± 6.2", "unit": "%"}, {"measurement": "LDL-C reached, Patient C", "setting": "Patient C on high-dose statins, ezetimibe and lomitapide, week 4, 2 weeks after evinacumab intravenous administration", "result": 15, "unit": "mg per deciliter"}, {"measurement": "reduction in LDL-C, Patient C", "setting": "Patient C, concomitant lomitapide, 2 weeks after evinacumab intravenous administration", "result": 90, "unit": "%"}, {"measurement": "reduction in LDL-C, Patient G", "setting": "Patient G, concomitant lomitapide, 2 weeks after evinacumab intravenous administration", "result": 44, "unit": "%"}, {"measurement": "reductions in LDL-C from baseline in all patients", "setting": "all nine patients, including the three homozygous null patients lacking LDLR activity", "result": "clinically meaningful reductions in LDL-C from baseline"}, {"measurement": "normalization of LDL-C concentrations", "setting": "evinacumab add-on therapy in HoFH participants", "result": "normalization of LDL-C concentrations in four HoFH participants"}, {"measurement": "LDL-C decreased (primary endpoint)", "setting": "nine HoFH adults on maximally-tolerated conventional therapies, week 4, given as a decrease", "result": 49, "unit": "%"}, {"measurement": "adverse events considered as related to the study medication", "setting": "nine HoFH patients", "result": "Six events were considered as related to the study medication"}, {"measurement": "adverse events leading to treatment discontinuation", "setting": "nine HoFH patients", "result": "none led to treatment discontinuation"}, {"measurement": "occurrence of at least one adverse event", "setting": "nine HoFH patients", "result": "All nine patients reported the occurrence of at least one adverse event"}, {"measurement": "serious adverse events", "setting": "nine HoFH patients", "result": "One event (coronary artery disease due to underlying disease) was serious but was not considered as related to the study medication"}, {"measurement": "triglycerides percent change, interquartile range", "setting": "nine HoFH patients, baseline to week 4", "result": "−57% to −38%"}, {"measurement": "HDL-C decreased by (percent change, mean±SD)", "setting": "[1]", "result": "36±16", "unit": "%"}, {"measurement": "apolipoprotein B decreased by (percent change, mean±SD)", "setting": "[1]", "result": "46±18", "unit": "%"}, {"measurement": "non-HDL-C decreased by (percent change, mean±SD)", "setting": "[1]", "result": "49±22", "unit": "%"}, {"measurement": "triglycerides decreased by (percent change, median)", "setting": "[1]", "result": 47, "unit": "%"}, {"measurement": "Overall mean±SD peak reduction in LDL-C", "setting": "[2]", "result": "-58+18% and −58±18%"}, {"measurement": "absolute peak reduction in LDL-C", "setting": "[2]", "result": 202, "unit": "mg/dL"}, {"measurement": "range of peak reduction in LDL-C", "setting": "nine HoFH patients, between weeks 4 and 12, range across patients", "result": -90, "unit": "% to-33%"}, {"measurement": "absolute change from baseline in LDL-C (mean±SD)", "setting": "nine HoFH patients, week 4", "result": "−157±90", "unit": "mg per deciliter"}, {"measurement": "mean±SD achieved LDL-C value", "setting": "nine HoFH patients, week 4", "result": "219±191", "unit": "mg per deciliter"}, {"measurement": "mean±SD percent change in LDL-C from baseline to week 4 (pre-specified primary endpoint)", "setting": "nine HoFH patients, week 4", "result": "−49±23", "unit": "%"}, {"measurement": "range of absolute change from baseline in LDL-C", "setting": "nine HoFH patients, week 4, range across patients", "result": "−323 to −71", "unit": "mg per deciliter"}, {"measurement": "reduction in LDL-C achieved by one patient", "setting": "one patient, week 4 (2 weeks after the intravenous dose)", "result": "greater than 80%"}, {"measurement": "reduction in LDL-C, patient D", "setting": "patient D, no lomitapide, week 4", "result": "−77", "unit": "%"}]}]}
